Results as given in a protein production outcome set (Wang et al. 2014).

Experiment: label from the status in PepcDB records
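Also: failed if final PepcDB status was selected cloned or expressed and not failed if soluble or beyond.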

Sequence	protein production
MCILGTTAKSLRLASVYGLSLFILFIVPLYLWQSTAAKMIAEVDWLDVATEGALFVLGMCWLMVIVSVRPSGRVTNLLIAGLSSYCLGCYLDLLDEIFIVKTLPIYNWFEKMPTPVGLLVLTGGLWLWRDEQTVVNRQLQTREQFHREHQLTDSLTLLNDAKAFEHHLVKQLSQNQSVGLLMLDVDYFHRYNKNQGVEEGDKLLSQLALWLSSTLRNQDLVCRYAGDRFVILLRGAIPSFVSVMAEQLQHGIKAFDCSATVVWTLPSPKMLPLQNSTCTAKEEAIALLQVLNQKMSQQKELRVSEAIAPSPFNTLDKSAASELN	failed
VAKMRFIDIGANLLDEMYTGQYNDKPYHPPDLSAVLERAWAAGLEKLMITAGSLKEARAALELAKTDERLYCTVGCHPTRCKEFEDHPGGPEAYLQELLEVLKEGQALGKVVAVGECGLVATDYERLHFCDADTQKKYFEAQFRLAKESGLPMFLHLRAAADDFLDITGRHLGDFPRGGVVHSFDGTAEEAARVLAVPQLAIGINGCSLKTDDNLAVVGGLPLERIMLETDCPWCEIRPTHAGRKHVSAEALAGVTGAKDRKKFMPGCQVKSRNEPANIRQVLEVVAGVKGRTDLEAVADVIFGNTERMFFPTA	not failed
MKFLDNIKKNQSLMRFIETTQSHMVTAEIGNSSVVVAYYLLLSLFPLLIAVGNVLPYLRIDPNSVLPYIAEAIPKDVYKNLEPAIRSLLTQRSGGLLSVSALAAFWSASQSINALQNAMNKAFGVEQRKNFILVRVVSFLVILLFMVAIVGVVVILGLGQYIIELLQPIFHYSTSVIDTFQALKWPLTTVVLLVIMCLIYAVVPNRKLSLRSILPGAIFSTVGWMLLSQIFGLYVKYFSSRIASYQIIGSFIILMLWLNFAATIIILGAIVNAVVDEYLSGDKEKKQPSFEQRLFRWFKKKK	failed
MKKVFITTGTEHYLRQLMENYIGENVTLLQNFSQSLLYQESTGEKLFQEGKEYRVLQSSGSLKGFGIVVFEYIQLRDEEIPIFLQMYQHASLHFSETPGLQSTKLTKAMNTNQFLIVSFWDSEVFFQEWKKTPLHKEITSIMKKNNTQVGFSHEDIYHYPEFSHDAK	not failed
STAFFFRRMSPADKRKLLDELRSIYRTIVLEYFNTDAKVNERIDEFVSKAFFADISVSQVLEIHVELMDTFSKQLKLEGRSEDILLDYRLTLIDVIAHLCEMYRRSIPREV	not failed
MINMYIPQFNPRIRKDQKSGLFFFEIRDNEGKTVSYQSGFNTKREAENTALEIQQKLRQGYTLDRYTSLYDWFQTWYDLKIRPKKKLSQETKKNYQIYGETLKRLFGDKPIIDIKSSQYQRIMNVYGETVGYDYLSRINSVIRKIIKLAQSDKIVIDDFTSTVELFAGKDGQKVNEKYIHSVEDYHRLISYLENNLNYEDSVVNHVIYVIAKTGMRYGEIIGLTNNDTSLDEHYLHTYKRYNTSTWKWTNAKNESSKRYIPIDDKIVAALSNMIKERERINSLLRIKNKEEFLFFHYGLEHGIPSVATVNKALKKILKKLDIEPIITTKGLRHTYGSYLLHNNIDMGVVARILGHKDIQMLIQVYGHTLTEKIDKEFKEVEQIMNRI	failed
MMSTTLNTRQATTADIPFLARIEYEASLPPLNHCFWDDLLDGTGTTALQFIEAELKADACNWGNVPDFLILEAGGQPVAAAAGYVPGTDDYCPLCLSQLGAIAKELNWGEETLEGFREHYVGLWGGNLRPLFLTPQATWIIENVAVLPEARGQGFGKALLRALLAKGRSQGHEFAGIMVINGNDRARHTYESVGFKPYQTFYKDYFWEQFKIDFPGVTKFGMRLN	failed
MVIYDLHESTYKQEVYCNIPDATSWSFPNGVLIKVVRGCWILYEKPHFRGQKCVLEEGEKVLNRDWILQNRRHPQRNFILGSLKRVLKDCSIPEIELFPQSDPACCPVYIQRAVPNLEELNISKSVSFTVKSGVWLAYPDINFKGQATVLEEDHGLFEISTAEMKSLHPLQMGGLKVEMPMNLKVIIYEKPHFHGQAKEFSEHIDSVPNFLKNNGDFHRIGSIRVIGGVWVAYEKEHFKGQQFLLEEGDFEDSNACGALSSPILSFRYLQANFIESSVTLFESDLESGKFIDITNQEISDLEEIGFGSKTRSIHVKSGVWVAYQQKFFCGEQYILEKGKYKCFFDWGGSNNIIMSIRPIQLEPLGINEPPHLLKAFSKPGFQGECIDFTEETSDLTPLMPCSFKVLRGCWLLYYQEDMFVNHCVLEEGLYADLTSCGCPASKVKSLKPIDYVFEEPSISLFALEHCEGRELHLEEAVNSVLNKDLHFYTQSVWVKSGLWIAYEGSNFLGRQILLRPNEIPNWTAFSRWKTIGSLRPMKQPAVYIRIKNRAQGEYLTVTGSLADTRATSVCISPYSGKHTQIWYYCRGLFKSKASDTCLDVIGGRDTPGAKVALWTEHGQFRQKWRLNKNGTISSYLSDQLVLDVKGGNYCDKTHVIVNQPLEGEETQKWDIEIL	failed
MVPIPNGVSAKETHKLMGRGIAAFALLLLLQVSGSIVTQSGLAAPWWNAMFLWLLLTGIGCFSVASIRGRGLRWTSSILSLLVLAGLLLWPAAVPTTVPVDIGTPWLWAMINVGAAWSAFAFGTLPGCVYTVVIGSVFAVVRTLPQSGSASPSTAIQDASFSTVLGIIICLTIGILRQASERVDTAAENAINRYREAAAETALSNERTRVDGLLHDSVMSALLTASRSGSSLERLSSAELARSALARLGEHEIKQTDATTVSVSELASRIRFTVQDDGDTPTVTVTGEGSTSLLLSGQVVRALFEASTEAVANAVRHSNATRCEVRVLGQDPKGIARVVVSVKDNGDGFRQELVSDRRLGIKVSIIGRMRTIGGTADISSHPGKGTEVILTWAGEA	failed
MTNAISNFTIYAFVALGGACGASLRFYISQLVLNWLGKGFPFATLMVNIIGSFTMGLLYQLIEHEILNVSVHRTLIGIGFLGAFTTFSTFSLDSLLLLQQGDVLKAAINILLNVSLCIAAAALGMFMVTTLTK	failed
MASSSSLSLSFPSSSLSRTWDYDVFPSFHGEDVRKAFLSQILKKEFGRKAINFFVDHEMERGEFIGPVLKQAIKGSKIALVLLSKNYASSWCCLDELVEIMKKESGQTVITIFYEVDPNEVKKQTGDFGKAFKETCQGKTEEKVQTWRKALEGVGLATIAGFHSSNWFVFFI	not failed
MGEMENIIYSIYHPTILVGFAIGILSLLAIGFQKNDLHALILTDVVECAMLIIIAGVGTDLAEALILPGLVVSLAELLAVSEVLITRKYLKSKRPKPKSYKLFEEFKLPLYTGELKYDIHMEILKTSPKFLAIILIVYGAILSGFTGGAVIATGLLFYALSQRVIGVEISEELKTMWEGISGLSGIAWALWIFGFIGFFVFPDKWLLCLLMAGLGLVIKVGSKLGLIGYIGEVR	failed
MEHIEIRVSATGSMSSFHALCSFHQWPINVACSCWLSHCYRIYSLYPPQLVSCSDRLSTSGNTNAGAEFVTE	failed
MVNEVQGIGIPTSHTSVQTTPTKEISRTNTINTVDESKTTIDPDQYKPKLELLSERLNEEMKRIGTDINFSYNDTIKGLVVSVKDANGDKVIREIPSKEAVELMQRMRDVIGIIFDKRG	failed
MSEDRTGHQGISGPATRAIHAGYRPDPATGAVNVPIYASSTFAQDGVGGLRGGFEYARTGNPTRAALEASLAAVEEGAFARAFSSGMAATDCALRAMLRPGDHVVIPDDAYGGTFRLIDKVFTRWDVQYTPVRLADLDAVGAAITPRTRLIWVETPTNPLLSIADITAIAELGTDRSAKVLVDNTFASPALQQPLRLGADVVLHSTTKYIGGHSDVVGGALVTNDEELDEEFAFLQNGAGAVPGPFDAYLTMRGLKTLVLRMQRHSENACAVAEFLADHPSVSSVLYPGLPSHPGHEIAARQMRGFGGMVSVRMRAGRRAAQDLCAKTRVFILAESLGGVESLIEHPSAMTHASTAGSQLEVPDDLVRLSVGIEDIADLLGDLEQALG	not failed
MFLVTGVFVSVRHERTGTGTTARESVQRITWFGTLRDDGVALVMPLSDRMLPTGIIREVPEERFLEEFMPDQATYEEHFRETAESLRGRLQLASTLPTDLYPEERILLDALSALLHGRSAAKPVDADIPAVLELLAHGQEGRSAGAFQTRLSGAAVDYRRQGDYPRALLFYDRALTMQGQEDRLLFNVARVHYEMGELAEAETCLKRALESNPALEEAGRFLAFLQKTTLQPQAGDE	failed
MQRERTAESSLRVISKEKNSITVEMINYDNTLLRTLVEEILKDDQVDEARYYIKHPVIDNPQIYVRVKSGKPQSAIKRAVRKLSKLYEDLGTQFQKEFQRYESDHMIKAVE	not failed
MIQVPASFDIQGHRGCRGLLPENTIAAFTKALLLGVTTLEFDLVISKDNRVVVSHDTFFHHEITMMVDGEDVTEANEKNFNLYAMNYADIKEIDVGMKTHPRFKSQKKVPAVKPLFRELIETAEKLSAKIQYNGEIKSTVEGDNIDHPNIALFCDLVVAEIKKAHITDRFTLQSFDVRALEYMHSQYPDIKLSYLVETKGTLKKQLEKLSFTPAVYSPDVTLVSKKDIDAAHKLGMRVIPWTVNTKEEIETLISLGVDGIITDYPDLFFEK	not failed
DAPQGAVIILPGDAESPDWPDTVGPLRRKFPDVGWSSLSITLPDAQDNTLLPREPDAAAGDANAAKPEETPKDAAAKAPDPAAEAEALAAVATAKAAADEERNKAQAELIFARIESAISFAQQNKARNIVLLGHSSGAYWAARFLNERPSPAVQKLVMVAA	failed
MSKKVIADVFLEVANAIESGEFGKKVKIGVTTLGSEHGVENMVNGAQLAKSNLFDIVLIGPKVETDLEVVEVNDEKEMHAKMEELLDSGYIDACVTMHYNFPIGVSTVGRVITPAKGKEMILATTTGTSATNRIEAMVRNAIYGIATAKSMGNKCPKVGILNVDGARQVEKCLKELKDNGYDMEFADSIRADGGCVMRGNDLLVGAPDVMVTDTLSGNIFMKVFSSYTTGGDYEAQGFGYGPGVGEDYDRKVLIVSRASGSPVVANALKYAYDVVKGDISNVARNEFAKVKKAKFDDIISSLTKKEVKAEKVEVKMPDKEIVTRQIAGVDIMDLEDAVSELWKNGIYAESGMGCTGPIVLVNEAKGDLAVETLVKAGYTAK	failed
MERVGTPEEERQAGPVLPTSLESDSSKRTSWGFLITGVVGGALLTVYAVATPFITPALRKVCLPFVPATSKQVENVVRMLRHRRGPLVDIGSGDGRIVIAAAKEGFPAVGYELNPWLVWYSRYRAWRAGVHGSAKFYISDLWKVTFAQYSNVVIFGVPQMMPQLEKKLELELEDGARVIACRFPFPRWTPDHTTGEGIDTVWAYDMSAQRGRGGRPNQEWVGQKNLSETAGLQASSSETRSKLLDVE	failed
MWAYLAILAMAYVTYKTKALDIKGIIAALLLGVIIVTLGGIIPFIALLAFLVMGTLATKFRYREKRKMGLIDESIRSVGNVLGNGLAPLLFVIVEFIIKQDFGWAGVLSSIAVANADTLASEIGKVFGKNPRIITNLKPAKPGEEGAVSFAGEFAALLGAFVISLFGLSLTEYGIQMIVSVTLAGLIGANIDSLIGATFEKNGYFGNNMTNFIATLLGGLLGMALFLLLV	failed
MKDAKSFNDLYKASIYTMLGSIYAPSGGVIAAPTTSLPEVEGGKRNWDYRFAWVRDSSIIAEALLEAGSIVEARRIINFLLSLINFSSKPFYYPLYTIEGTIPPPERELRWLSGYKNSKPVRIGNGASSQIQLDIEGFFISALYKYVKMTNDQVFLKDVFSKVKYIGDWISENWSLKDSGIWEDRGSPQHYTHSKIMMWIALDKIGKLANLIGYADIWAKEREKLRNWIFTNCVKNNYFIRYCGNTDDVDSSLLSAPLYGFIEVSDSTFINTLTKIENDLKTDVFVKRYKTDFMGEAKHPFLLTTVWLARVYMRLGKIDSAIEILNKINKVSRELHLVGEHVDVEKGEFTGNFPQIFVHAQLVIAIKELNDTLEHHHHHH	failed
